The assay has as its target zFGF5 (human) (UniProt O76093). In words: cell-based or functional assay.

Sequence of zFGF5 (human) (O76093 28-207): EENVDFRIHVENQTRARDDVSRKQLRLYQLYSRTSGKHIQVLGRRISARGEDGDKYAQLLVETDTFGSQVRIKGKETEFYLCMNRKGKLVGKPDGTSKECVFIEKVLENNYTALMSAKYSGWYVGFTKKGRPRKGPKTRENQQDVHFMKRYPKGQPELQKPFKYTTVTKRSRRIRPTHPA

The substance “FGFR2α-IIIb/Fc (from UniProt P21802 22-378) (Fc fusion)” showed a Cell Proliferation (percent of control), BAF3/FGFR3α-IIIc cells with zFGF5, soluble receptor at 0 fold-excess (percent of control) of 100; a Cell Proliferation (percent of control), BAF3/FGFR3α-IIIc cells with zFGF5, soluble receptor at 62.5 fold-excess (percent of control) of 101; a Cell Proliferation (percent of control), BAF3/FGFR3α-IIIc cells with zFGF5, soluble receptor at 125 fold-excess (percent of control) of 90; a Cell Proliferation (percent of control), BAF3/FGFR3α-IIIc cells with zFGF5, soluble receptor at 250 fold-excess (percent of control) of 91. The Cell Proliferation (percent of control), BAF3/FGFR3α-IIIc cells with zFGF5, soluble receptor at 500 fold-excess (percent of control) turned out to be 101 and the Cell Proliferation (percent of control), BAF3/FGFR3α-IIIc cells with zFGF5, soluble receptor at 1000 fold-excess (percent of control) stood at 99.

These data come from patent US20050043234A1.
